Patent US20250011737A1 (ALX ONCOLOGY, published 2025)
Where a chain is given by its changes, count along the chain named. Each block holds one binder with its values, some of them ahead of it.

Tests used:
[1] = target: T1, human CD47-hFc (R & D Systems, catalog number 4670-CD) (human, UniProt Q08722 19-139); experiment: SPR (Biacore T100), CD47-hFc immobilized on CM4 chip, intact construct injected
T1 construct: Bought; immobilized by amine coupling on a CM4 chip (370 RU); also called CD47 on the chip; not shown: human Fc (hFc) of a bought protein
T1 sequence (Q08722 19-139 limits assumed): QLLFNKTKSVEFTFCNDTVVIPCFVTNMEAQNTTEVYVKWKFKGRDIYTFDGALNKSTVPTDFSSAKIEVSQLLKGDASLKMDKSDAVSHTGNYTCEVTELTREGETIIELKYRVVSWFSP

[2] = target: T1, human CD47-hFc (R & D Systems, catalog …); experiment: SPR (Biacore T100), CD47-hFc immobilized on CM4 chip, intact construct injected (FIG. 5B)
[3] = target: T1, human CD47-hFc (R & D Systems, catalog …); experiment: SPR (Biacore T100), CD47-hFc immobilized on CM4 chip, intact construct at 100 nM
[4] = target: T2, CD47 IgSF domain having amino acids 1-117 and C15S, relative to wild-type CD47 (SEQ ID NO: 35) (human, UniProt Q08722 19-135); experiment: inferred from SPR of cleaved constructs SEQ ID NOs: 52-54 on CD47-hFc
T2 construct: in the assay it was tethered to, or released by cleavage from, the SIRP-α variant (it then still carries spacer and linker residues); also called IgSF domain of CD47

B1: SIRP-α variant construct (SEQ ID NO: 53), intact (other)
chain: QLLFNKTKSVEFTFSNDTVVIPCFVTNMEAQNTTEVYVKWKFKGRDIYTFDGALNKSTVPTDFSSAKIEVSQLLKGDASLKMDKSDAVSHTGNYTCEVTELTREGETIIELKYRVVSGGGGSGGGGSGGGGSGGGGSLSGRSDNHGGGGSGGGGSEEELQIIQPDKSVLVAAGETATLRCTITSLFPVGPIQWFRGAGPGRVLIYNQRQGPFPRVTTVSDTTKRNNMDFSIRIGNITPADAGTYYCIKFRKGSPDDVEFKSGAGTELSVRAKPS
notes: uncleaved
- binding result [1]: no binding (tested: 100 nM)

B4: SIRP-α variant construct (SEQ ID NO: 60), intact (other)
chain: B1 chain with L101Q
notes: uncleaved
- binding result [2]: no binding (tested: 100 nM)

B5: SIRP-α variant construct (SEQ ID NO: 62), intact (other)
chain: B1 chain with T102Q
notes: uncleaved
- binding result [2]: no binding (tested: 100 nM)

B6: SIRP-α variant construct (SEQ ID NO: 59), intact (other)
chain: GQLLFNKTKSVEFTFSNDTVVIPCFVTNMEAQNTTEVYVKWKFKGRDIYTFDGALNKSTVPTDFSSAKIEVSQLLKGDASLKMDKSDAVSHTGNYTCEVTELTREGETIIELKYRVVSGGGGSGGGGSGGGGSGGGGSGGGGSLSGRSDNHGGGGSGGGGSEEELQIIQPDKSVLVAAGETATLRCTITSLFPVGPIQWFRGAGPGRVLIYNQRQGPFPRVTTVSDTTKRNNMDFSIRIGNITPADAGTYYCIKFRKGSPDDVEFKSGAGTELSVRAKPS
notes: uncleaved
- binding result [2]: no binding (tested: 100 nM)

B8: SIRP-α variant construct (SEQ ID NO: 54), intact (other)
chain: QLLFNKTKSVEFTFSNDTVVIPCFVTNMEAQNTTEVYVKWKFKGRDIYTFDGALNKSTVPTDFSSAKIEVSQLLKGDASLKMDKSDAVSHTGNYTCEVTELTREGETIIELKYRVVSGGGGSGGGGSGGGGSGGGGSGGGGSLSGRSDNHGGGGSGGGGSEEELQIIQPDKSVLVAAGETATLRCTITSLFPVGPIQWFRGAGPGRVLIYNQRQGPFPRVTTVSDTTKRNNMDFSIRIGNITPADAGTYYCIKFRKGSPDDVEFKSGAGTELSVRAKPS
notes: uncleaved
- binding result [1]: no binding (tested: 100 nM)

B9: SIRP-α variant construct (SEQ ID NO: 48), intact (other)
chain: SEVTELTREGETGGGGSGGGGSLSGRSDNHGGGGSGGGGSEEELQIIQPDKSVLVAAGETATLRCTITSLFPVGPIQWFRGAGPGRVLIYNQRQGPFPRVTTVSDTTKRNNMDFSIRIGNITPADAGTYYCIKFRKGSPDDVEFKSGAGTELSVRAKPS
notes: uncleaved
- binding result [3]: binds

B10: SIRP-α variant construct (SEQ ID NO: 51), intact (other)
chain: GQYTSEVTELTREGETIIELKGGGGSGGGGSGGGGSLSGRSDNHGGGGSGGGGSEEELQIIQPDKSVLVAAGETATLRCTITSLFPVGPIQWFRGAGPGRVLIYNQRQGPFPRVTTVSDTTKRNNMDFSIRIGNITPADAGTYYCIKFRKGSPDDVEFKSGAGTELSVRAKPS
notes: uncleaved
- binding result [3]: binds

B11: SIRP-α variant (SEQ ID NO: 31) (receptor)
chain: EEELQIIQPDKSVLVAAGETATLRCTITSLFPVGPIQWFRGAGPGRVLIYNQRQGPFPRVTTVSDTTKRNNMDFSIRIGNITPADAGTYYCIKFRKGSPDDVEFKSGAGTELSVRAKPS
notes: also called SIRP-α variant alone
- binding result [4]: binds

B13: SIRP-α variant construct (SEQ ID NO: 58), intact (other)
chain: GQLLFNKTKSVEFTFSNDTVVIPCFVTNMEAQNTTEVYVKWKFKGRDIYTFDGALNKSTVPTDFSSAKIEVSQLLKGDASLKMDKSDAVSHTGNYTCEVTELTREGETIIELKYRVVSGGGGSGGGGSGGGGSGGGGSLSGRSDNHGGGGSGGGGSEEELQIIQPDKSVLVAAGETATLRCTITSLFPVGPIQWFRGAGPGRVLIYNQRQGPFPRVTTVSDTTKRNNMDFSIRIGNITPADAGTYYCIKFRKGSPDDVEFKSGAGTELSVRAKPS
notes: uncleaved
- binding result [2]: no binding (tested: 100 nM)

B15: SIRP-α variant construct (SEQ ID NO: 49), intact (other)
chain: SEVTELTREGETGGGGSGGGGSGGGGSLSGRSDNHGGGGSGGGGSEEELQIIQPDKSVLVAAGETATLRCTITSLFPVGPIQWFRGAGPGRVLIYNQRQGPFPRVTTVSDTTKRNNMDFSIRIGNITPADAGTYYCIKFRKGSPDDVEFKSGAGTELSVRAKPS
notes: uncleaved
- binding result [3]: binds

Next, values leading:

- binding result [2]: no binding (tested: 100 nM)
B2: SIRP-α variant construct (SEQ ID NO: 61), intact (other)
chain: B1 chain with L101Y
notes: uncleaved

- binding result [2]: no binding (tested: 100 nM)
B3: SIRP-α variant construct (SEQ ID NO: 63), intact (other)
chain: B1 chain with T102H
notes: uncleaved

- binding result [2]: no binding (tested: 100 nM)
B7: SIRP-α variant construct (SEQ ID NO: 57), intact (other)
chain: GQLLFNKTKSVEFTFSNDTVVIPCFVTNMEAQNTTEVYVKWKFKGRDIYTFDGALNKSTVPTDFSSAKIEVSQLLKGDASLKMDKSDAVSHTGNYTCEVTELTREGETIIELKYRVVSGGGGSGGGGSGGGGSLSGRSDNHGGGGSGGGGSEEELQIIQPDKSVLVAAGETATLRCTITSLFPVGPIQWFRGAGPGRVLIYNQRQGPFPRVTTVSDTTKRNNMDFSIRIGNITPADAGTYYCIKFRKGSPDDVEFKSGAGTELSVRAKPS
notes: uncleaved

- binding result [3]: binds
B12: SIRP-α variant construct (SEQ ID NO: 50), intact (other)
chain: GQYTSEVTELTREGETIIELKGGGGSGGGGSLSGRSDNHGGGGSGGGGSEEELQIIQPDKSVLVAAGETATLRCTITSLFPVGPIQWFRGAGPGRVLIYNQRQGPFPRVTTVSDTTKRNNMDFSIRIGNITPADAGTYYCIKFRKGSPDDVEFKSGAGTELSVRAKPS
notes: uncleaved

- binding result [1]: no binding (tested: 100 nM)
B14: SIRP-α variant construct (SEQ ID NO: 52), intact (other)
chain: QLLFNKTKSVEFTFSNDTVVIPCFVTNMEAQNTTEVYVKWKFKGRDIYTFDGALNKSTVPTDFSSAKIEVSQLLKGDASLKMDKSDAVSHTGNYTCEVTELTREGETIIELKYRVVSGGGGSGGGGSGGGGSLSGRSDNHGGGGSGGGGSEEELQIIQPDKSVLVAAGETATLRCTITSLFPVGPIQWFRGAGPGRVLIYNQRQGPFPRVTTVSDTTKRNNMDFSIRIGNITPADAGTYYCIKFRKGSPDDVEFKSGAGTELSVRAKPS
notes: uncleaved
